Laboratory results reported in patent publication US11180762B2, “Methods and compositions for the treatment of cancer” (CHILDREN'S MEDICAL CENTER CORPORATION, priority 2014, dated 2021).
“Also recorded” adds a separate entry of the source.

Test system: Argonaute (AGO)
Assay: PLK1 siRNA association with Argonaute (pan-AGO immunoprecipitation, qRT-PCR)
Type: cell-based, human
Details: MDA-MB-468 cells treated 2 days; listed as PLK1 EpCAM-AsiCs
Excerpt: MB-468 cells, treated with PLK1 EPCAM-AsiC or siRNA for 2 days, were lysed, and cell lysates were immunoprecipitated with pan-AGO antibody or IgG isotype control. The amount of PLK1 siRNA in the immunoprecipitates was quantified by Taqman qRT-PCR, presented as log2 mean with SEM, relative to miR-16. **, P<0.01 by Student's t-test relative to siRNA-treated cells. ND, not detectable. […] This is likely because most RNAs that are taken up by cells are not released from endosomes to the cytosol (A. Wittrup et al., Visualizing lipid-formulated siRNA release from endosomes and target gene knockdown. Nature Biotechnology 2015, in press).
Uptake was clearly detected at 22 hr, but increased greatly after 43 hr. To test whether EpCAM-AsiCs are specifically taken up by EpCAM bright cell lines, the 3′ end of the antisense strand of the AsiC was fluorescently labeled. […] Previous studies have shown that AsiCs are processed within cells by Dicer to release the siRNA from the aptamer (10, 12, 15).

B1: PLK1 EpCAM-AsiC: EpCAM aptamer linked by U-U-U to PLK1 siRNA sense strand (SEQ ID NO: 1), annealed to antisense strand (SEQ ID NO: 2) (nucleic acid)
sense: GCGACUGGUUACCCGGUCGUUUUGAAGAAGAUCACCCUCCUUATT
antisense: UAAGGAGGGUGAUCUUCUUCATT
modifications: DNA at T, 2'-fluoro at CU, RNA at AG, backbone not given here; EpCAM aptamer fused to sense strand
PLK1 siRNA bound to Ago / in the RISC: PLK1 siRNA immunoprecipitated with Ago; also recorded: PLK1 siRNA was found in the RISC
